From patent US20140005098A1 (INSERM INSTITUT NATIONAL DE LA SANT ET DE LA RECHERCHE M …, published 2014)

Target: T1, IGF-II (UniProt P01344 25-91)
T1 construct: also called biotinylated IGF-II (tracer form)
Experiment: solid-phase displacement of biotinylated IGF-II tracer (Example 5, to which the sentence points); reference: unfused mini-IGFBP-3
Protocol: A solid-phase assay was used to study the binding affinity of mini-IGFBP-3-Fc for IGF-II. In this assay, two binding proteins (mini-IGFBP-3 and mini-IGFBP-3-Fc) were immobilized to a support. They were incubated with the biotinylated IGF-II tracer, and then increasing concentrations of IGF-II were added.

T1 sequence (P01344 25-91 limits assumed): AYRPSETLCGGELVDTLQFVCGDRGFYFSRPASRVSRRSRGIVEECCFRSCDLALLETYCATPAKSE

B1: mini-IGFBP-3-Fc (mini-IGFBP-3-FcIgG1 fusion protein, immunoadhesin) (Fc fusion, human)
chain: GASSAGLGPVVRCEPCDARALAQCAPPPAVCAELVREPGCGCCLTCALSEGQPCGIYTERCGSGLRCQPSPDEARPLQALLDGRGLCVNASAVSGGGSGGSGGSGGSGGETEYGPCRREMEDTLNHLKFLNVLSPRGVHIPNCDKKGFYKKKQCRPSKGRKRGFCWCVDKYGQPLPGYTTKGKEDVHCYSMQSK
notes: range 1-94;range 180-264; also called mini-IGFBP-3 immunoadhesin; not shown: Fc fragment of human IgG1 from the pYM-Fc-IgG1 vector
- fold apparent affinity (IC50) against IGFBP-3 derivatives not fused to IgG1 Fc: 7 fold
